In patent US8663964B2, “Methods of treating human papillomavirus” (Tamir Biotechnology, Inc., priority 2011, dated 2014):

Columns and labels:
cancer cells = details: because of enzymatic activity against RNA; cited from earlier work
HPV type 11 = assay: quantitative reverse transcriptase PCR (QRT-PCR) antiviral assay against HPV type 11 in A-431 cells; assay type: cell-based, type 11 human papillomavirus; details: HPV-11 in A-431 cells
Method: To evaluate the activity of the tested RNases against type 11 HPV infections, the following quantitative PCR assay was used:
Solutions of the tested RNases were prepared in cell culture medium without use of dimethyl sulfoxide (“DMSO”). DMSO is unnecessary because the tested RNases are water-soluble.
HPV is an DNA virus. Antiviral activity against HPV type 11 was evaluated using a quantitative reverse transcriptase PCR (QRT-PCR) assay. Initially, on Day 1, 1 million A-431 cells were placed in 6-well dishes in Dulbecco's Modified Eagle Medium (“DMEM”) supplemented with 10% fetal bovine serum (“FBS”). The cells were then incubated for two days at 37° C.
After this incubation period, on day 2 replicate aliquots of HPV-11 were added to each non-control well, representing a multiplicity of infection (“MOI”) of 150 particles per cell in DMEM containing 2.5% FBS.
One day later, i.e. on day 3, DMEM with 10% FBS was added to each cell culture well.
One day later, i.e. on day 4, the tested compounds were added to the non-control cell culture wells. Control wells received media alone, or the vehicle used to dilute the tested compounds. Cidofovir diluted to 300 ug/ml was used as a positive control. […]
Finally, one day later, on […], QRT-PCR was carried out to quantitate the proportion of viral E1^E4 transcripts and a cellular reference RNA for the TATA-binding protein (“TBP”). […]

[1] = cited from earlier work

Row | Molecule | cytotoxicity to cancer cells (cancer cells) | activity against type 11 HPV (as seen in FIG. 1; SI = CC50/EC50) (HPV type 11) | toxicity and tolerability in humans [1]
1 | Val11, Asn20, Arg103—Ranpirnase ['805 variant] | cytotoxic to certain cancer cells | extraordinarily active | –
2 | ranpirnase (protein, UniProt P22069 1-104, looked up, An RNase disclosed and claimed in U.S. Pat. No. 5,559,212; registered trademark ONCONASE) Protein P-30: QDWLTFQKKHITNTRDVDCDNIMSTNLFHCKDKNTFIYSRPEPVKAICKGIIASKNVLTTSEFYLSDCNVTSRPCKYKLKKSTNKFCVTCENQAPVHFVGVGSC | cytotoxic to cancer cells | extraordinarily active | non-toxic and well-tolerated
